Test results taken from patent publication US20210063414A1, “METHODS FOR PREVENTING AND/OR TREATING BONE LOSS CONDITIONS BY MODULATING IRISIN” (Dana-Farber Cancer Institute, Inc., priority 2018, published 2021).

Experiments:
epididymal fat (eWAT) = experiment: Irisin injection in mice: thermogenic and creatine cycle gene mRNA in epididymal fat; type: in vivo; conditions: irisin injections 6 days
Experimental: Eight week old mice were injected with indicated dose of irisin or 1 mg/kg CL316243 for 6 days. Epididymal fats (eWAT) were collected and indicated genes mRNA level was analyzed by qPCR. GATM is the first and rate-limiting step of creatine synthesis (Sandell et al. (2003) Proc. Natl. Acad. Sci. U.S.A. 100:4622-4627).
Certain materials and methods were used to generate the results described herein. For example, the data shown in FIG. 1A resulted from MLO-Y4 (an osteocyte-like cell line) cells treated with the indicated concentration of irisin and hydrogen peroxide for 4 hours. Cells were stained with Hoechst 33342 (ThermoFisher Scientific, catalog number H3570) and Eth-D1 (ThermoFisher Scientific, catalog number E1169) and analyzed to determine the percentage of cell death using ImageJ. […] Co-precipitated irisin was analyzed by immunoblot analysis against flag tag (Sigma Aldrich, catalog number A8592). The data shown in FIGS. 5A and 5B were generated from MLO-Y4 cells treated and analyzed as in the experiments used to generate the data shown in FIG. 2D, except that pre-treatment of 100 nM RGDS (FIG. 5A) or echistatin (R & D Systems Inc., catalog number 3202/100U) (FIG. 5B) for 10 minutes was performed before irisin treatment. […] Sclerostin mRNA level was analyzed by qPCR (FIG. 7A). […]

integrin αV/β1 = target: T1, integrin αV/β1 (Homo sapiens, UniProt P05556+P06756); experiment: FAK phosphorylation in HEK293T cells with forced expression of integrin αV/β1; type: cell-based
T1 construct: expressed in transfected cells; host or cells: HEK293T
T1 sequence (P06756 31-889 limits assumed): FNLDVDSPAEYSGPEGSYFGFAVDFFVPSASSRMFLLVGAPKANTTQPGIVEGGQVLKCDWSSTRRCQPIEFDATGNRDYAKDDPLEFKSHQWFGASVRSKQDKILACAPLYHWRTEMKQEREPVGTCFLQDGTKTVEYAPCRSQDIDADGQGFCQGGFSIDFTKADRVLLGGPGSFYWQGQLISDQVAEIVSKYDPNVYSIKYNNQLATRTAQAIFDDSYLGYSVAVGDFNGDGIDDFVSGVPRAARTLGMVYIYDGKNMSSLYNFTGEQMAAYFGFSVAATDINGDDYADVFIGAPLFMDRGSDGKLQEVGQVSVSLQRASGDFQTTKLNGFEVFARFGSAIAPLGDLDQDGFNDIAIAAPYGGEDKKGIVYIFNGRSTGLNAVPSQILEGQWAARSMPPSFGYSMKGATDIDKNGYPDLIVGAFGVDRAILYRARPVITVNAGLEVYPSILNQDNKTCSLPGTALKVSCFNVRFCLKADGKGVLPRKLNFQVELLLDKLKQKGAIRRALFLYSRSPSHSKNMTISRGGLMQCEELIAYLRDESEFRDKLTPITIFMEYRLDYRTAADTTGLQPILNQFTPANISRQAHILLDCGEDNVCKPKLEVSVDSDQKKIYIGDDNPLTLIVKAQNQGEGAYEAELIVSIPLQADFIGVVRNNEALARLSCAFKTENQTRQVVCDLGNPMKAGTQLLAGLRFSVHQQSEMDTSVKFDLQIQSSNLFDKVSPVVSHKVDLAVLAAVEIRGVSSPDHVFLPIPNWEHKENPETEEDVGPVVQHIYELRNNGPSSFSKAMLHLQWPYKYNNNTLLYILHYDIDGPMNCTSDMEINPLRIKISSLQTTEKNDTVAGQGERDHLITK
T1 sequence (P06756 891-1048 partner limits assumed): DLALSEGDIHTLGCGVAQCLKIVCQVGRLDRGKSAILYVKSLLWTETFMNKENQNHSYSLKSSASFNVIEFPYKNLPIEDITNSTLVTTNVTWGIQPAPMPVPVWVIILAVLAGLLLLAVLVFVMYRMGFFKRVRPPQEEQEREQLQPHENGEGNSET
T1 sequence (P05556 21-798): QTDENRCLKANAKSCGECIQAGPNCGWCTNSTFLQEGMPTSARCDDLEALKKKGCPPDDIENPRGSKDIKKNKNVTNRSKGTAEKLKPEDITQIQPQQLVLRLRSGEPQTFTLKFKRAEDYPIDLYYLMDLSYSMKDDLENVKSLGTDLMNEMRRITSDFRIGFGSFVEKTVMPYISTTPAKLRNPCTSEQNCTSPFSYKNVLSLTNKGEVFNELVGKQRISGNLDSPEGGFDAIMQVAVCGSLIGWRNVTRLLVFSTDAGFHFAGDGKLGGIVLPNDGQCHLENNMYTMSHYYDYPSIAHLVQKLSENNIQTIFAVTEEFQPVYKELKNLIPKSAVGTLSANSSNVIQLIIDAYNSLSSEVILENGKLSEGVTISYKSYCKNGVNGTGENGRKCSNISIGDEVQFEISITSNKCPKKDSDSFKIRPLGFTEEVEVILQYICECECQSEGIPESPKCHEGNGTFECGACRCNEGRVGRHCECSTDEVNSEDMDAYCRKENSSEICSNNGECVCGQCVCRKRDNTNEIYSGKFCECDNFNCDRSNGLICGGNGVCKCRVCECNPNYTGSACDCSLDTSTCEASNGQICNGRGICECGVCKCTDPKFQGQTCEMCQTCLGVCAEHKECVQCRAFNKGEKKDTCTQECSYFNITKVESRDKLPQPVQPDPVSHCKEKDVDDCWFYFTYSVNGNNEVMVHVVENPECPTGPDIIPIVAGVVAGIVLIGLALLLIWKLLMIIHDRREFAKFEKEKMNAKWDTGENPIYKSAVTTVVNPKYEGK
Experimental: 100 nM irisin was incubated with 5 nM indicated his-tag integrins followed by immunoprecipitation using Ni-NTA agaroses. Precipitated integrins and co-precipitated irisin were analyzed by immunoblot analysis. […] HEK293T cells were seeded and incubated until 50% cell density. The cells were transfected with 0.1 μg plasmids of indicated integrins. After 48 hours, the cells were re-split to indicated dose of vitronectin-coated plates. Cells were incubated with culture medium for 3 hours. Cells were lysed to detect the indicated protein level using immunoblot analysis. FIG. 15C and FIG. 15D show the immunoblot data. Cells were treated and analyzed as FIG. 14B except using plasmids encoding integrin α5/β1 or integrin α11/β1 (FIG. 15C) integrin αV/β1(FIG. 15D).
HEK293T cells were set up for experiments at 1×10^5 cells per well in 6 well plate. On day 2, cells were transiently transfected with the indicated plasmids with FuGENE® 6 reagent (Roche Applied Science) according to the manufacturer's protocol. […]
Cells were harvested in RIPA buffer containing protease-inhibitor cocktail and phosphataseinhibitor cocktail. […] Protein levels were analyzed via western blot using indicated antibody. […] Protein levels were analyzed using western blot against indicated antibody.

B1: irisin: secreted cleaved form of FNDC5; recombinant human/mouse irisin with C-terminal his tag produced in HEK293 cells (protein)
chain: DSPSAPVNVTVRHLKANSAVVSWDVLEDEVVIGFAISQQKKDVRMLRFIQEVNTTTRSCALWDLEEDTEYIVHVQAISIQGQSPASEPVLFKTPREAEKMASKNKDEVTMKE
modifications: left off: small tags and cut ends
notes: secreted cleaved form of FNDC5; recombinant human/mouse irisin with C-terminal his tag produced in HEK293 cells
Epididymal fat (eWAT)
  expression of futile creatine cycle genes (GATM, CKMT2, CKB): also increased expression
  mRNAs of classical thermogenic pathway genes (UCP1, DIO 2): increased expression
Integrin αV/β1
  phosphorylation of FAK upon irisin treatment: increased FAK phosphorylation
